Measured values reported in the domain aggregation screens of Martell et al. (2025).

Experiment: soluble fraction after stress (log2 fold change); higher = more stays soluble; pooled small domains, quantitative proteomics
Conditions: stress: 50 degC
How it was run: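 Pooled custom libraries of small protein domains were measured in a high-throughput format, with quantitative proteomics as the read-out. Each library was stressed at 50°C. Aggregation propensity is given as the base-two logarithm of the fold change in how much of each protein stays soluble after the stress. Higher values mean a larger share of the protein remains in solution.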

Sequence | soluble fraction (log2)
HMTSDYEPSEKDEKAVIGIAFLRNTDVYDVDIDKAEAIKALKANNDIYQKFVKFFPFVKLPSLYDDFQ | -0.00582
HMSTTSYTQFMEDAKAGKIARVDIKGREITVTPTEGSRYVITSPGDLWMVDDLRKDGVQVYGPP | 0.101
HMKKAITMGDIITVKELSEKIGIQVAEIIKKLMGLGILATINKELDYDTANVIASEFHIELERK | -0.00712
HMSDIDHIAGRRIRQARLNAGMTLETLASQAGISKALLSKIENSKVSSPLATFSKISKVLGVPLSDLLKE | -0.056
HMSGRSVSYSEFMSRVEAGQVSSVTLDGERVEVTGSDGSRYVTIAPSDATLTDKLVAKGVEVRADP | 0.102
HMAGRKMMVMANNLSVRKSANSLSEKLADLSRGDTVEYISSTNGWNKVRYKGQIGYVSSYYLKDTGEEVE | -0.0409
HMYRWSEEIFEKLRSDIMAALDLSREQNDEEIYRFIETEVEEYSQNNLLTLKEREQLEHLLFNSL | -1.3
HMKLTNNDFIRLKTFMYNNYGINLENKKTLIETRLAIVVKRLGFNDFKSYIDNLMRDKTGEQASIIVGKLT | -0.58
HMIDENILSEEIKHYIETNNYAKDDKLPSERSLASLFNVSRALVRKSLISLVDVNYLYVKDKSGYYING | -0.0735
HMSDTVDITKLGIAGKTKEAAEALLKENGFSVESKEENSDTIEKGKVISYSPTKPKNGDRITLIVSSGKK | 0.0915
HMTEELLNQRKETMLALLNDPTYVPMKLKELAMLLNLSRDQRDELREVMESLEQDGKVILTKRGKYKIP | -0.269
HMYIVVPDLSKKDINEVANILAAQSLRFQVIDSANFRSDFPKNAVISQKPLAGSEVKVNKKIYLQLNPS | -0.345
HMIVDYPSFVGKTKQELEKWAKENNIIIRYRQLSVTASDKVKAQLPATTTYKRIMKGSSIEVELEL | -0.776
HMEKIELKTVIPENLKKKRLDFALSELFPEHSRSRIQSWIKEGSVMVNSKNYRQRDLVDAGDVVEINTEQK | 0.236
HMSQIILSARSGHAALRHRLGELGYTFADKEFDDIYERFLEVADQKKEVYDEDLESIVQERQRD | 0.0537
HMDLANLQNGQTLPLQRDVEVISIPFGKTISLSEDSVVSIMQAKGSSVSVAYEGRLYLIEGSNLDALGLEP | -0.736
HMNAKKSTLQLDLLKQLLEGNKISLKDFSLSNEISIRTAQRYIEDLLEIFEKNIVKEGDFYSFIS | -2.3
HMRPDSFEAGEAEAGSRLDRLLAARLGIPRNQVQQWIGGGRVTVDAEPVRASLVVRAGMRIAWDPPPPP | -0.0768
HMTGRVKWYDATKGFGFVTSDEGGDVFLPKGALPAGVADLKTGQRIEFGVVDSRKGAQALGVK | 0.337
HMNVPATAEAYEALLADAESVGKSLWGHEAKRFAAEQALLSAGLREVIQVDPDKARELALRLRGLLDEYRG | 0.13
HMSVPQENKDLLGRSIEIFYAGKTVEAKVTDTGALAPLGRALDLSPATWRAFGASSISDWGVRGVFYRFVA | 0.0464
HMEIKDQADAYGKMEPASAAAILSEMTNDLTLVAKILDSMQTSKSALILQNMKPTTAAQVTTKMTAMK | 0.0219
HMVGDMLTQKDSEGLTAYLYQQGIISQREMLLLNGILKDRVLTGMEKGQRDSVRASMVQHLLAMLNMM | -0.848
HMFPQVEVQLIYSYKSDRILNKMLKEFNVVILNQVFKDDILTSFHMNYSLVNQLITKIKSYPDISYKIIN | -1.5
HMKSIETVAELVAELKKLNPNAKISNIDGTYTLEEDINTITLPKDFKYDNNLGINNKIDDFTPYISLDVKA | 0.41

Sequence | soluble fraction (log2)
HMVWMIEKDQSVILVNKLERIQVEALGKALENGNFGDRIRVINNKSGQKLLGIVESEKKIQIISKI | -2.44
HMHPARITATVRVGEGDLVDIEREAELGGPIHSKGVMILSSFLGARYARTVPLSLSASLVFEQSY | 0.0114
HMQINLSEWVLAAREYAGPEMTQEKLAEHLGRTKANVSAMENGRSKPSFEQMMEIHRVTGYPLPYQ | -0.218
HMKPSNLTSDERTQLLAQLKTAMGSDQYNQLRRQVGEEKLLEYVLDNVPGIQEEILGNRAVQENIDLH | 0.23
HMSSIVLTARSGRAALAYRVKSIGVDLSKDQLDLVYKTFLGFADKKKEIIDTDIPQILKASGI | -1.92
HMLTLAVPNSINMRLDKYLSENIDYLSRSKIQGLINDGKVTINGENEKSSYKLNGDESIVIYYEE | -0.0746
HMEIYIDGNKYVGELRNGKPNGRGTITYTGDGSKYVGEWKNGKRYGRGKMAYTNGTTKEGVWKDDEFLYAT | 0.0597
HMDLLESLSAREREVVHLASRGLVNKLIARELGITERTVKAHLSSAFEKLHIKDRVHLALLVNGI | -1.45
HMNTISYTELIKQIDEGNVEKVEMTVGSTSVKVKLQGQEEEKKAIVPNTQAFVELIQEKTLEGNQIDLKQN | -0.0333
HMEDPKLAQLTEQERKILDLIADGLTNRQIAEKMFLAEKTVKNYVSTILAKMGMSNRSEAAAYVARLEAG | 0.0787
HMSVEVADITRAYYEGVGFEWWIRSVRLDPNELIVDNDDEGKLYRVPFEINGEEVTFGDPVEVKIRYE | -0.541
HMFANQLLLTRFDLNYIKSDVLSRQIDVLGIPIKKLTIEANNKSIWLQGTSQSLSKVRELIGIIDIRENA | -3.1
HMNPHGVAIIDVRKGKASTLRSLATSVRSLGEWDQLKIPIFNLESLTSLVLWHGLDAIVKEPESLQSNLIL | -0.62
HMDTRQFWEQWVADEIRTFEHKDRKQLFGWFEGNKPKLGQMKKLGYGDLLTKVQTSWDEIYQQKE | 0.124
HMAYSEEDRRRVREELLTTALKLMSTQGIQHTTVEQVYRSVGISRSFFYAFFPTKEDLIVEAL | 0.117
HMEIEETKKNSRTKIPENFDYKLINGLSNEIRAKLELIRPIDLLQASRIDGMTPAALTLVHLWIKKYSG | -0.338
HMPAVTEQTRANLRTAFWSLYREKPTSKITVREITDRAGYNRATFYLYYRDVYDLFEQIEQEIL | -2.36
HMGSEEMLGALGVVERATDDGDWWIAVHGEHWRARSAQALVPGDRVRVARIDGLTLTVTPIA | -0.0957
HMIQNTGMMESGDSIRGMALDAGFPLLMVVGYRGWTRKGNTPDSAAVYTEPFLNAFRLNYYLVEHDE | 0.309
HMEIRNLMPILSHFLNENDIKLSRESVNLVLDRASGNRENLNNELKKIHDYSFSNKIIDFETIKKLTNLG | -0.194
HMDASKVKIEDLGLSTRTENALVAASIRTAGGLARKSEMDLLSTDGLGEKGITEIKKALSDLGLELK | 0.285
HMAEGPYSGKKVEKYPGGMEKRETMYSEGKLTRVTEFHQSGQKKMEVKVDANGQWKRLYWDNNGNPT | 0.07
HMGKGVDKIMKMADDYSYGKIAGKTVDVMTAKLFQAAYNKAPQKAKDKVDKMNEKQLYIFMMNLWKRF | -0.777
HMDLFLVYQFIRRLATPFTEWKAHELGIIDDKGVQLKKRRDFTTREEKDAYGIFDIMITKLKRLIEKV | -0.255
HMQNKYIIKQGNSGELVEVLQELLNLKQDGVFGPQTKKAVIAFQQKHKLVADGIVGPMSWRKLNFNPEELF | -2.13

Sequence | soluble fraction (log2)
HMDAEETLGARLRRLRQARGLSLAGLAQAAGLSKPSIWAWENGTTAPRRTSLLALARALDVPEQQLTGV | -0.358
HMPMIQHFHRMISAALGISEKQIVQTLGLLNDGATIPFISRYRKEVTGGLDEVQIESIKTHYEKLNEIAK | -1.52
HMGFDTVVEKVLGLITSRPMTSRDIQMTLGRSREHTSRLMNRLYKEGLVDRNTSSKPFSYIITEKGREKI | -0.0114
HMETKQYIVEAQDEGTRLDVYLTKELGQSRSYVQSLVKEGHVQVNGKTGKSNLKLSSSSEILVTIPEVQ | -0.0648
HMEPVIELGDRTLPIEITRHRRARRLTLRLAADGSAVRITLPHWARSAEATAFAHARRDWLAAQLAK | 0.0378
HMSKININTITESELKELPISTVKQKAIQDYLIDRGFISNIYDLLDIKEITSDDVSLLKKVVNVKLPY | -0.218
HMKPLIIPLELMQRLSSDKQLEAGFNRFSKSKQHEFAAYIAAAKRVETKVKRLEKIIPLILSGEGLNDR | -1.36
HMGRDWKTDLLNLATARGWGDVSYEVTGEGPDHARVYTAVAIVANQKTGTGVGPSKKEAERLAAEQAYRML | -0.142
HMGVDMGPAKYVGQKALTATEMRPAGKIQIGQTVFDAVSVGPFIGARKAVKVIKYENAQLYVEPE | 0.00597
HMKVSDLIGMLGRVTGELAPTGIVLVGNKTWTAISEDASVIASGEQVQVRSVAGLILTVSHQVD | -2.15
HMDEKLAHKLVSDFRQAAASLERFPFRNPVLRSEVFTVEKYRKLVFDKYHILLYQVKDQVVYVEYVIDGRQ | -0.75
HMNMEYQKAINHIVQMVKDGQLIVGSKIPSERDLSESLGIGRNSTREAISILRGMGLVESRHGSGNYIAKD | -0.148
HMGELRAPLPGVIVSIPVKEGDEVKAGQAILIIEAMKMESEISSPIDAKVAKIVVKERVLVQEGDILIILE | -0.702
HMLKFGLSQRELQILALLPTDEPLSILAKSLFISESTLKTHLTHIYRKLGVKNRLQAINVARKAGLLK | -0.283
HMGEQETILKGDVNRDGVVDVNDVTHLQIHISNDDKNPLIDVTNKAWFDAADMYGDGKLDILDATALQIYI | 0.11
HMEDELFSVARAAFPEYASKIHMNYGSTVQSIARQSGVLTVSETKQLNENQQISYLEYSNGAVVLALA | -0.0402
HMDWPDDETIARIYALIKSDISSQARKVMELRFSEGMPFARIAAAMGISETAVYRHLSHALTVIRQKLN | -2.06
HMLTDMSKIRKVLKLYGKGNSKLFISTYLSLSRNTVKKYISLFEVSGKTIEEILAKSDSELELLFSG | -0.919
HMDEQVETLKNLISELPKEQLEVLVMRHYEDLSFKEISEKTGVSINTALGRMRYALINIRKLMKENN | -0.223
HMSEEQLKAFLEKVQGDTSLQEKLKAAADANAVVEIAKEAGFSISADDLKNAQSELSEEELE | -0.0697
HMQPQYSVLFSNIEEKDGGSIITLLQQGNVPYKVENGGTTILVPANRANELRLTLAAQGLPK | -0.0124
HMTEDELLAQFEEILDGYVGKPGGLIPALQTAQKLFGYLPKRVLQLISMKLDIPYSEVTGVVSFYSFFTTV | -0.0145
HMNDRLAGMEGQRGEAATNFDQGEGKVKVGDTVWLAKQSDSTVIVEGDQIVVTGSENGLLKVRL | -0.165
HMDVLKVFSHNVRRYRTQLGLSQETVAFRTGLHRTYISAVERGKRSISLDNIQKIADALEVETYLLFI | -1.72
HMDLYIILGLERSATLSDVRRAYRRLARKYHPGINPGDRNSASVFTRVSEAYQVLSDPEQRRRYDSR | -2.81
